The values below come from paper PMC8307404, “Crystal Structure-Guided Design of Bisubstrate Inhibitors and Photoluminescent Probes for Protein Kinases of the PIM Family” (Molecules, 2021).

Assay in all cases: Kinase profiling (radiometric filter-binding)
Assay type in all cases: biochemical

The target of series [1] is PIM1 (Homo sapiens, UniProt P11309). The conditions noted are these: PIM1, 1 µM inhibitor; for remaining activity at 1 µM: read-out: Residual activity, %. In outline: (§1)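 Radiometric filter-binding; human PKs; ATP ≤ KM per kinase; compound 1 µM final; readout = % residual activity vs no-inhibitor control.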
Series [2] deals with T1, BRSK2 (Homo sapiens, UniProt Q8IWQ3).
T1 sequence (Q8IWQ3 1-736): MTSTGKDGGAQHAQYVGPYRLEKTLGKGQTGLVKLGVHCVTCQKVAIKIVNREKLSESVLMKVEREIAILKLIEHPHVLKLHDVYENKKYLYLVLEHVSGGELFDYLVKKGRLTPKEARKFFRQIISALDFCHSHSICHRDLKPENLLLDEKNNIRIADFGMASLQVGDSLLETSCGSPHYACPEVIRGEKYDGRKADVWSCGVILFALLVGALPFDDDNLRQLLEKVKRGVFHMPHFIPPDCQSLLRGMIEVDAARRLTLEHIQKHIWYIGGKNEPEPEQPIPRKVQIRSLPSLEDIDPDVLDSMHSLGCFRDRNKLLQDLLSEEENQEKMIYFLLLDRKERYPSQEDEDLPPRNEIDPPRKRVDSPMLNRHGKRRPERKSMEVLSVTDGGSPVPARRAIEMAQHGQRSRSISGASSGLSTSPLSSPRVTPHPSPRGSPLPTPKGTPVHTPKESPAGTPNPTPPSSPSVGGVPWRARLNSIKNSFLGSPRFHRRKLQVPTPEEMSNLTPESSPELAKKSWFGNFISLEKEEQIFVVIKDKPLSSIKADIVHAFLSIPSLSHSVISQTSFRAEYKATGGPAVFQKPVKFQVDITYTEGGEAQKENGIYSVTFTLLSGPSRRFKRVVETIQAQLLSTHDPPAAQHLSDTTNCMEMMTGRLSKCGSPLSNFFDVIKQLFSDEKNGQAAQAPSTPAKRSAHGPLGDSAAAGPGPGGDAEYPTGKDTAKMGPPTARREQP
The conditions noted are these: BRSK2, 1 µM inhibitor; read-out: Residual activity, %. The procedure, abridged: as §1

For series [3], the target named is S6K1 (Homo sapiens, UniProt P23443). The conditions noted are these: S6K1, 1 µM inhibitor; read-out: Residual activity, %. In outline:
as §1

Series [4] concerns the target CLK2 (Homo sapiens, UniProt P49760). To be noted: CLK2, 1 µM inhibitor; read-out: Residual activity, %. In outline: as §1
Series [5] deals with T2, DYRK2 (Homo sapiens, UniProt Q92630).
T2 sequence (Q92630 1-601): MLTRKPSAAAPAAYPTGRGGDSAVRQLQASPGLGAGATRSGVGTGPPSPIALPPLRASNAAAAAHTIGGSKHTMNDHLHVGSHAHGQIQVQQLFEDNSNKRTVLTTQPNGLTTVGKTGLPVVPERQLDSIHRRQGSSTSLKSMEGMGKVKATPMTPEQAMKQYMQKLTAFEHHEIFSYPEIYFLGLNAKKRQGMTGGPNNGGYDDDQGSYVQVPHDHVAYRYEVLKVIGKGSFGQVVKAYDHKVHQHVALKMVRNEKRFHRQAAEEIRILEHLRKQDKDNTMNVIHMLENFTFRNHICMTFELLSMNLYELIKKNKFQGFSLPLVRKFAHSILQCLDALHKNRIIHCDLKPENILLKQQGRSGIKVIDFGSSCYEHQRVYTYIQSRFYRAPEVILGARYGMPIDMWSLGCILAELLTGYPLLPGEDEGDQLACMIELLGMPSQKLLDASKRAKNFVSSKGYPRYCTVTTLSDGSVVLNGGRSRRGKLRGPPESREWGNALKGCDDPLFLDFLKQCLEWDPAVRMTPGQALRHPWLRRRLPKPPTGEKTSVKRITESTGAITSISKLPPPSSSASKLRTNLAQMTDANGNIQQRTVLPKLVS
To be noted: DYRK2, 1 µM inhibitor; read-out: Residual activity, %. In outline: as §1

In series [6] the target is PHK (Homo sapiens, UniProt Q16816). The conditions noted are these: 1 µM inhibitor, read-out: Residual activity, %. In outline:
as §1

The target of series [7] is T3, TGFBR1 (Homo sapiens, UniProt P36897).
T3 sequence (P36897 34-503): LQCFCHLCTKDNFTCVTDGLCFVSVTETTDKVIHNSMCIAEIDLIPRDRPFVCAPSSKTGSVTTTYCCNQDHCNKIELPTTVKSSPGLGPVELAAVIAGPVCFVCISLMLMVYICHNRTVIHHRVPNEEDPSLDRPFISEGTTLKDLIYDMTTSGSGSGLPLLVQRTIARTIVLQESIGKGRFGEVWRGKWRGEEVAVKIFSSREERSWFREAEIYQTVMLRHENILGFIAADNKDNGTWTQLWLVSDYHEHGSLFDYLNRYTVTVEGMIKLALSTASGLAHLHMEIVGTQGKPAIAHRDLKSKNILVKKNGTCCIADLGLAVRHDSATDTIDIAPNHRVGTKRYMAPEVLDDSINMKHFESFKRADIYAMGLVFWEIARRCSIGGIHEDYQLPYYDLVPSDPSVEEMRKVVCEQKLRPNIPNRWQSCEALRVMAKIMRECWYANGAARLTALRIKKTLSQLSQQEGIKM
The conditions noted are these: TGFBR1, 1 µM inhibitor; read-out: Residual activity, %. In outline:
as §1

Series [8] addresses TrkA (Homo sapiens, UniProt P04629). The conditions noted are these: 1 µM inhibitor, read-out: Residual activity, %. In outline: as §1
Series [9] has as its target CDK9-Cyclin T1 (Homo sapiens, UniProt P50750). To be noted: CDK9-Cyclin T1, 1 µM inhibitor; read-out: Residual activity, %. The procedure, abridged:
as §1

Series [10] concerns the target MAPKAP-K3 (Homo sapiens, UniProt Q16644). The conditions noted are these: MAPKAP-K3, 1 µM inhibitor; read-out: Residual activity, %. The procedure, abridged: as §1
The target of series [11] is PRK2 (Homo sapiens, UniProt Q16513). The conditions noted are these: PRK2, 1 µM inhibitor; read-out: Residual activity, %. In outline:
as §1

For series [12], the target named is YES1 (Homo sapiens, UniProt P07947). To be noted: YES1, 1 µM inhibitor; read-out: Residual activity, %. In outline: as §1
Chain of YES1 (P07947 whole entry): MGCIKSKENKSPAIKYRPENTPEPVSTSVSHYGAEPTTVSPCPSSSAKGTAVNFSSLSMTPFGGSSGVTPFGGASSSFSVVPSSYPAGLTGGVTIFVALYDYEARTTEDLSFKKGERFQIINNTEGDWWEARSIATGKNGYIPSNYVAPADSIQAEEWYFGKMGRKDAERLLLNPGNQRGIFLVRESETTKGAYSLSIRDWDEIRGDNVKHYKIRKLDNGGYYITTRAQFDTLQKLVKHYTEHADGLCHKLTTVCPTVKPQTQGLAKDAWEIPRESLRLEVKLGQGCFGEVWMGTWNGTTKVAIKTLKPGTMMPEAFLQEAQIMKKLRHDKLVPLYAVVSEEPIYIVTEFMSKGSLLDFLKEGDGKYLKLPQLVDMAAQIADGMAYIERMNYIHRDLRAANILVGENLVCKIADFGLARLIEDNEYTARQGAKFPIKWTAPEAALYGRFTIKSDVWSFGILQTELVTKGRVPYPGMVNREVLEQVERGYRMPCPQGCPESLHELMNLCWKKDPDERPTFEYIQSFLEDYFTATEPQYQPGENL
Series [13] addresses IGF-1R (Homo sapiens, UniProt P08069). To be noted: 1 µM inhibitor, read-out: Residual activity, %. The procedure, abridged: as §1

Structures are written as SMILES. Square brackets hold non-standard residues; d marks the D form. Peptide text beside a SMILES is read from it. * marks the point of attachment. X3 = O=C(CCCCCNCc1nc2c(sc3cc(Br)cnc32)c(=O)[nH]1)*

Chain of CDK9-Cyclin T1 (P50750 whole entry): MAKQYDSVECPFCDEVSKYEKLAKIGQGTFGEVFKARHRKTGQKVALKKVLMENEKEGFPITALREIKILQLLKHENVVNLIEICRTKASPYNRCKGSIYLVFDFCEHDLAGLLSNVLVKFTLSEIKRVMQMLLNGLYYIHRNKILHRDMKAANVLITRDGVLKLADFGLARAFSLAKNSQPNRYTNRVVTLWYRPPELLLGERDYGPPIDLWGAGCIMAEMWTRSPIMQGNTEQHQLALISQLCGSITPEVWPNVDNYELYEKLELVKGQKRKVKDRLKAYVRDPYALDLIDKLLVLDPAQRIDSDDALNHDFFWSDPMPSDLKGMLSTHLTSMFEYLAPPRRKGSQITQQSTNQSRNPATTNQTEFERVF
Chain of CDK9-Cyclin T1 (O60563 whole entry partner): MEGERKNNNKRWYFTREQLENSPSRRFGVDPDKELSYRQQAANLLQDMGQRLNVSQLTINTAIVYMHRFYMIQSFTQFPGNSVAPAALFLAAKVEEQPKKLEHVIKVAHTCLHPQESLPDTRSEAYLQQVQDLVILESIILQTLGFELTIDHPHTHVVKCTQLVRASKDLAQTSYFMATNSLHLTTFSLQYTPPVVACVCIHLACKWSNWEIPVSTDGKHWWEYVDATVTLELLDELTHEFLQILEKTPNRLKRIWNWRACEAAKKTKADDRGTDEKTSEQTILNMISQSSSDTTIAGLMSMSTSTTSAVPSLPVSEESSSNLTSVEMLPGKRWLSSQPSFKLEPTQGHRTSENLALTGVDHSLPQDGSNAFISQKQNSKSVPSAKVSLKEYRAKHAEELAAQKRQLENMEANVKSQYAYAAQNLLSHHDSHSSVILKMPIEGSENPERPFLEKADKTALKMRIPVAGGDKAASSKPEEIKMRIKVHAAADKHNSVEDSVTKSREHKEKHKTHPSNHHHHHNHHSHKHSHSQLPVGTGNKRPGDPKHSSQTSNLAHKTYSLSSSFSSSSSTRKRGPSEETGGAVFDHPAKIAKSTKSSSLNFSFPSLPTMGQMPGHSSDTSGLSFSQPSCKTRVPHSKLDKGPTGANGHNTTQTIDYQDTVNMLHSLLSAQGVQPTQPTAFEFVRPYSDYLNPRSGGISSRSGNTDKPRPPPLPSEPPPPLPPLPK
Chain of CLK2 (P49760 whole entry): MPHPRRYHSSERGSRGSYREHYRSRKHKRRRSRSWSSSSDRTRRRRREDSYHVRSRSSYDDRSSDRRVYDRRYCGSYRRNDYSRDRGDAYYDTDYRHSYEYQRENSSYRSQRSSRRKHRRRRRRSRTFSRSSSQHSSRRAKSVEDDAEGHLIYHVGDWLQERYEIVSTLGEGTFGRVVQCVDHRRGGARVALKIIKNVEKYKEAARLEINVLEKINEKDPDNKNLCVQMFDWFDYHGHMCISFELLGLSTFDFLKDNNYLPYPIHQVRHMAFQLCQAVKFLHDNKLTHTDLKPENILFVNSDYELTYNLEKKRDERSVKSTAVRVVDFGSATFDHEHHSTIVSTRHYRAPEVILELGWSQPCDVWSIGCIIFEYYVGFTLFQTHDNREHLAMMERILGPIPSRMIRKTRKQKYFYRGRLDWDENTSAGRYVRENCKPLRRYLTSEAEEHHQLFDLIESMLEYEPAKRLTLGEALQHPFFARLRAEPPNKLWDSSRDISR
Chain of IGF-1R (P08069 31-1367): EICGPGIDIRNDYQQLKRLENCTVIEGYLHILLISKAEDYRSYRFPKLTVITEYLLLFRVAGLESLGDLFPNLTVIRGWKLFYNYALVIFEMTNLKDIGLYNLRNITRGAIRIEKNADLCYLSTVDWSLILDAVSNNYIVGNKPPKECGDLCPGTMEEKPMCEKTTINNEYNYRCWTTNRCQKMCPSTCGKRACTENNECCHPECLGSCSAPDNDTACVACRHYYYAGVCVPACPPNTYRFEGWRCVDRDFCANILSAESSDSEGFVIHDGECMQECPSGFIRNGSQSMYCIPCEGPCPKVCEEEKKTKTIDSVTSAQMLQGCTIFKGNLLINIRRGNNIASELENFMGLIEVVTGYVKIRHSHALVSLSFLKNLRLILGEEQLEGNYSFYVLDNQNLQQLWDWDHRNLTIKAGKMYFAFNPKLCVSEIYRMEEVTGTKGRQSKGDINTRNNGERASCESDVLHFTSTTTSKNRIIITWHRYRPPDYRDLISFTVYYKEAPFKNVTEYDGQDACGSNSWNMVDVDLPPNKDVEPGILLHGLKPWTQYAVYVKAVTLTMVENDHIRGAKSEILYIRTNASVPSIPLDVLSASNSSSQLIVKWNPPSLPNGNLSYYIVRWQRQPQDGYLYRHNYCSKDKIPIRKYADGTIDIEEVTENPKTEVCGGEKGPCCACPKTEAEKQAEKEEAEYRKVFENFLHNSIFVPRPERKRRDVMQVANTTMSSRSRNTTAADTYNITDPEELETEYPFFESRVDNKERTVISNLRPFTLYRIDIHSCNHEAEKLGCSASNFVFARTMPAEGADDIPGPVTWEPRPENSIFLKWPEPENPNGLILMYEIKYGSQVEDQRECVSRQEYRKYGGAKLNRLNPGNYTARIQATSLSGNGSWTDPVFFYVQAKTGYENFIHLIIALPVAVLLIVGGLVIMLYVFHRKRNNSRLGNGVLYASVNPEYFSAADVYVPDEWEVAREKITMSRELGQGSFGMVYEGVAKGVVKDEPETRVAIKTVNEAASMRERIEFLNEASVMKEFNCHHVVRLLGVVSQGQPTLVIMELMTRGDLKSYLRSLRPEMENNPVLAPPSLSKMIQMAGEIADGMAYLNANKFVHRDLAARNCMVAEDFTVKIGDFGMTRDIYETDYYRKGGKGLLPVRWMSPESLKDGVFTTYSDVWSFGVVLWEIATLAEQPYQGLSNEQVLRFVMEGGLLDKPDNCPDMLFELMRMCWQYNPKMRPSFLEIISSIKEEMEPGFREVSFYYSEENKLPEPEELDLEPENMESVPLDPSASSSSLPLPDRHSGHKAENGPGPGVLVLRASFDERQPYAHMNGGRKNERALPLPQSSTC
Chain of PHK (Q16816 whole entry): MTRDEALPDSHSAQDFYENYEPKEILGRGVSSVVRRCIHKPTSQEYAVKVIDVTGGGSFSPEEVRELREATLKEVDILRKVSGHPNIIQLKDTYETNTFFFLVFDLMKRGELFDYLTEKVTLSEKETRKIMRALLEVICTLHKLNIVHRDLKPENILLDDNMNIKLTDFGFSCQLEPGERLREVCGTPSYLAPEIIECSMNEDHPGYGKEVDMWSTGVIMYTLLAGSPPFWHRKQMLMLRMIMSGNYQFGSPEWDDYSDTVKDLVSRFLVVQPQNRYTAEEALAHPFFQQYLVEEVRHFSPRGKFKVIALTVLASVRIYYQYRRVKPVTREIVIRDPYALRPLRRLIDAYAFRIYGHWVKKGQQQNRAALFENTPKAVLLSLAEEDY
Chain of TrkA (P04629 33-796): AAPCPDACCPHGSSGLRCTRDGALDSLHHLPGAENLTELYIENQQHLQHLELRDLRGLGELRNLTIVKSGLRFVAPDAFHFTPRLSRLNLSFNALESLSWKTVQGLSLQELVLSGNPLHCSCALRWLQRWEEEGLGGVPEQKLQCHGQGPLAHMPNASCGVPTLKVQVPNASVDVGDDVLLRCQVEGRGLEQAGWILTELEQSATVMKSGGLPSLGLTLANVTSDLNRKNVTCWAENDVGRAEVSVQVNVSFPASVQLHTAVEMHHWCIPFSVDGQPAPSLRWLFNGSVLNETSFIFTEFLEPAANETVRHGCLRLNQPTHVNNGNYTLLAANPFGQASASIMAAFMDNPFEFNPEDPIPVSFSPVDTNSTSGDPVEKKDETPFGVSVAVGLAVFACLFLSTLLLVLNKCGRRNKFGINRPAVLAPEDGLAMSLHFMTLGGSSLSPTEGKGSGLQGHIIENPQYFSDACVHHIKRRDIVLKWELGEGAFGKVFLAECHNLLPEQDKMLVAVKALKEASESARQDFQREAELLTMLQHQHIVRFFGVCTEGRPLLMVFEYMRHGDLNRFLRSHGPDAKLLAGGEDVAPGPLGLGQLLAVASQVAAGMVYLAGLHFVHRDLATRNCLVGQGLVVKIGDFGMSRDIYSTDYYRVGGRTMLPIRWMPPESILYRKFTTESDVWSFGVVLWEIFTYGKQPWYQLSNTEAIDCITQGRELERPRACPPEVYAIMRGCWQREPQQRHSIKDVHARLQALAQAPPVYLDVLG
Chain of MAPKAP-K3 (Q16644 whole entry): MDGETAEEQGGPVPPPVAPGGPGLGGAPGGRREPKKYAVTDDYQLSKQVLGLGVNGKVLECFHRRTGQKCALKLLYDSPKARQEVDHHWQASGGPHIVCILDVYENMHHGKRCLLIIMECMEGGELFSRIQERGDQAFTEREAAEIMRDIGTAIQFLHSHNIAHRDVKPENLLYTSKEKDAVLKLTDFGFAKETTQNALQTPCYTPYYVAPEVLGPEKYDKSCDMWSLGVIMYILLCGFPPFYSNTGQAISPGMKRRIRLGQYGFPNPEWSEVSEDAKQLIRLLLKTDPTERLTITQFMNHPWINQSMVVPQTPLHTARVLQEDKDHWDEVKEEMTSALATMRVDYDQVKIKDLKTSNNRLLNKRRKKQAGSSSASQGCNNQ

`N=C(N)NCCC[C@@H](NC(=O)CCCCCNC(=O)Cn1cnc2c(I)c(I)c(I)c(I)c21)C(=O)N[C@H](CCCNC(=N)N)C(=O)N[C@H](CCCNC(=N)N)C(=O)N[C@H](CCCNC(=N)N)C(=O)N[C@H](CCCNC(=N)N)C(=O)N[C@H](CCCNC(=N)N)C(=O)N[C@H](CCCCN)C(N)=O` [ARC-3125, TIBI-CH2-C(=O)-Ahx-(D-Arg)6-D-Lys-NH2]: the remaining activity at 1 µM in [1] was 0%; in series [2] it was 107 ± 23%; in [3], 13%; in series [4], -1 ± 5%; in series [5], 54 ± 6%; in [6], 104 ± 11%. The remaining activity at 1 µM in series [7] was 108 ± 18%; in [8], 97 ± 7%; in series [9], 55 ± 1%; in series [10] it was 48 ± 1%; in [11], 16 ± 6%; in [12] it was 104 ± 8%.

In the case of `N=C(N)NCCC[C@@H](NC(=O)CCCCCNCc1nc2c(sc3cc(Br)cnc32)c(=O)[nH]1)C(=O)N[C@H](CCCNC(=N)N)C(=O)N[C@H](CCCNC(=N)N)C(=O)N[C@H](CCCNC(=N)N)C(=O)N[C@H](CCCNC(=N)N)C(=O)N[C@H](CCCNC(=N)N)C(=O)N[C@H](CCCCN)C(N)=O` [ARC-3126, BPTP-Ahx-(D-Arg)6-D-Lys-NH2] (X3-[dR][dR][dR][dR][dR][dR][dK]-NH2), the “Residual activity, %” value in series [1] was “zero”. Moreover, the remaining activity at 1 µM in series [1] was found to be 0%; in [2], 100 ± 9%; in series [3] it was 75 ± 2%; in series [4], 57 ± 15%; in series [5] it was 88 ± 6%; in [6], 128 ± 10%. The remaining activity at 1 µM in series [7] is 109 ± 2%; in series [8] it was 112 ± 21%; in series [13] it was 114 ± 24%; in series [9], 104 ± 3%; in [10], 43 ± 7%; in series [11], 58 ± 15%. Further, the remaining activity at 1 µM in [12] amounted to 98 ± 12%.

`N=C(N)NCCC[C@@H](NC(=O)CNC(=O)[C@@H](CCCNC(=N)N)NC(=O)[C@@H](CCCNC(=N)N)NC(=O)CCCCCCCNCc1nc2c(sc3cc(Br)cnc32)c(=O)[nH]1)C(=O)N[C@H](CCCCN)C(N)=O` [Compound 1, BPTP-Aoc-(D-Arg)2-Gly-D-Arg-D-Lys-NH2]: the remaining activity at 1 µM in [1] was 9%; in series [2] it was 124 ± 12%; in series [3], 98 ± 2%; in [4], 97%; in series [5] it was 85 ± 17%; in series [6] it was 109 ± 3%. For the same molecule, the remaining activity at 1 µM in series [7] was determined as 103 ± 8%; in series [8], 106 ± 17%; in [13] it was 77 ± 8%; in series [9] it was 110 ± 10%; in series [10] it was 111 ± 6%; in [11], 92 ± 2%. Moreover, the remaining activity at 1 µM in series [12] came to 110%.

Consider `N=C(N)NCCC[C@@H](NC(=O)CNC(=O)[C@@H](CCCNC(=N)N)NC(=O)[C@@H](CCCNC(=N)N)NC(=O)CCCCCCCNCc1nc2c(sc3ccc(Br)cc32)c(=O)[nH]1)C(=O)N[C@H](CCCCN)C(N)=O` [Compound 2, BBTP-Aoc-(D-Arg)2-Gly-D-Arg-D-Lys-NH2], for which the remaining activity at 1 µM stood at 5 ± 3% in series [1]; 108 ± 12% in series [2]; 85 ± 1% in [3]; 24% in [4]; 64 ± 5% in [5]; 98 ± 4% in series [6]. For the same molecule, the remaining activity at 1 µM was found to be 106 ± 7% in series [7]; 128 ± 13% in series [8]; 91 ± 6% in series [13]; 101 ± 20% in [9]; 110 ± 11% in series [10]; 94 ± 12% in series [11]. For the same molecule, the remaining activity at 1 µM in series [12] came out at 104 ± 12%.

In the case of `N=C(N)NCCC[C@@H](NC(=O)CNC(=O)[C@@H](CCCNC(=N)N)NC(=O)[C@@H](CCCNC(=N)N)NC(=O)Cn1cc(CNCc2nc3c(sc4ccc(Br)cc43)c(=O)[nH]2)nn1)C(=O)N[C@H](CCCCN)C(N)=O` [Compound 3, BBTP-Amt-(D-Arg)2-Gly-D-Arg-D-Lys-NH2], the remaining activity at 1 µM in series [1] came out at 5 ± 1%; in series [2], 96 ± 8%; in series [3], 55 ± 6%; in series [4] it was 30 ± 1%; in series [5] it was 83 ± 22%; in series [6], 78 ± 6%. For the same molecule, the remaining activity at 1 µM in series [7] is 95 ± 10%; in series [8], 95 ± 2%; in series [13], 58 ± 7%; in [9], 90 ± 18%; in series [10] it was 85 ± 5%; in [11] it was 67 ± 4%. Also, the remaining activity at 1 µM in series [12] stood at 124 ± 1%.
